The target in the test is T1, CD3ε homodimer protein (human, UniProt P07766 23-126, limits assumed, sulfo-tag or biotin label in the ECL assays; amine-coupled to the chip in SPR).
T1 construct: also called human CD3ε homodimer protein; CD3 (CD3ε)
Put plainly: SPR Biacore T200; CD3ε homodimer on CM4 chip.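 Note: Single-residue variant antibodies injected as analyte over CD3ε homodimer immobilized by amine coupling, run at 25 °C in HBS-EP+ buffer.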

Numbering of substitutions follows the chain as printed. Numbers in names are those of the source.

Experimental findings from US20260049138A1 (Chugai, published 2026) are described below.

T1 sequence (P07766 23-126 limits assumed): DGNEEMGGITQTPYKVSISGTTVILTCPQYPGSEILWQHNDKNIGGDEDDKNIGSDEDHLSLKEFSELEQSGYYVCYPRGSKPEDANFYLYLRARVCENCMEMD

B1: CE115HA000 Q50E one-arm antibody (antibody, human IgG1, kappa, L234A L235A, N297A, name in Kabat numbering)
heavy: QVQLVESGGGVVQPGRSLRLSCAASGFTFSNAWMHWVRQAPGKGLEWVAEIKAKSNNYATYYAESVKGRFTISRDDSKNSLYLQMNSLKTEDTAVYYCRYVHYGAYYGVDAWGQGTTVTVSSASTKGPSVFPLAPSSKSTSGGTAALGCLVKDYFPEPVTVSWNSGALTSGVHTFPAVLQSSGLYSLSSVVTVPSSSLGTQTYICNVNHKPSNTKVDKKVEPKSCDKTHTCPPCPAPEAAGGPSVFLFPPKPKDTLMISRTPEVTCVVVDVSHEDPEVKFNWYVDGVEVHNAKTKPREEQYASTYRVVSVLTVLHQDWLNGKEYKCKVSNKALPAPIEKTISKAKGQPREPQVYTLPPSRCELTKNQVSLSCAVKGFYPSDIAVEWESNGQPENNYKTTPPVLDSDGSFFLVSKLTVDKSRWQQGNVFSCSVMHEALHNHYTQKSLSLSPDYKDDDDK
chain: EPKSSDKTHTCPPCPAPELLGGPSVFLFPPKPKDTLMISRTPEVTCVVVDVSHEDPEVKFNWYVDGVEVHNAKTKPREEQYNSTYRVVSVLTVLHQDWLNGKEYKCKVSNKALPAPIEKTISKAKGQPREPQVCTLPPSRDELTKNQVSLWCLVKGFYPSDIAVEWESNGQPENNYKTTPPVLDSDGSFFLYSKLTVDKSRWQQGNVFSCSVMHEALHNRYTQKSLSLSP
light: DIVMTQSPLSLPVTPGEPASISCRSSQSLVHSNRNTYLHWYQQKPGQAPRLLIYKVSNRFSGVPDRFSGSGSGTDFTLKISRVEAEDVGVYYCGQGTQVPYTFGQGTKLEIKRTVAAPSVFIFPPSDEQLKSGTASVVCLLNNFYPREAKVQWKVDNALQSGNSQESVTEQDSKDSTYSLSSTLTLSKADYEKHKVYACEVTHQGLSSPVTKSFNRGEC
Take B1: the “ratio of amounts bound Z=Y/X (altered form / CE115HA000)” value amounted to 0.26.

B2: CE115HA000 Q50I one-arm antibody (antibody, human IgG1, kappa, L234A L235A, N297A, name in Kabat numbering)
heavy: B1 heavy with E50I
chain: B1 chain
light: B1 light
Consider B2, for which the “ratio of amounts bound Z=Y/X (altered form / CE115HA000)” value was determined as 0.4.

B3: CE115HA000 S52cA one-arm antibody (antibody, human IgG1, kappa, L234A L235A, N297A, name in Kabat numbering)
heavy: B1 heavy with E50Q, S55A
chain: B1 chain
light: B1 light
In the case of B3, the “ratio of amounts bound Z=Y/X (altered form / CE115HA000)” value stood at 0.96.

B4: CE115HA000 Q50Y one-arm antibody (antibody, human IgG1, kappa, L234A L235A, N297A, name in Kabat numbering)
heavy: B1 heavy with E50Y
chain: B1 chain
light: B1 light
As to B4, the “ratio of amounts bound Z=Y/X (altered form / CE115HA000)” value came to 0.25.

B5: CE115HA000 Q105E one-arm antibody (antibody, human IgG1, kappa, L234A L235A, N297A, name in Kabat numbering)
heavy: B1 heavy with E50Q, Q114E
chain: B1 chain
light: B1 light
As to B5, the “ratio of amounts bound Z=Y/X (altered form / CE115HA000)” value was 0.94.

B6: CE115HA000 S30D one-arm antibody (antibody, human IgG1, kappa, L234A L235A, N297A, name in Kabat numbering)
heavy: B1 heavy with S30D, E50Q
chain: B1 chain
light: B1 light
On to B6, for which the “ratio of amounts bound Z=Y/X (altered form / CE115HA000)” value is 0.86.

B7: CE115HA000 T28S one-arm antibody (antibody, human IgG1, kappa, L234A L235A, N297A, name in Kabat numbering)
heavy: B1 heavy with T28S, E50Q
chain: B1 chain
light: B1 light
For B7, the “ratio of amounts bound Z=Y/X (altered form / CE115HA000)” value came to 0.91.

B8: CE115HA000 S52cQ one-arm antibody (antibody, human IgG1, kappa, L234A L235A, N297A, name in Kabat numbering)
heavy: B1 heavy with E50Q, S55Q
chain: B1 chain
light: B1 light
With B8, the “ratio of amounts bound Z=Y/X (altered form / CE115HA000)” value is 1.04.

B9: CE115HA000 S52cK one-arm antibody (antibody, human IgG1, kappa, L234A L235A, N297A, name in Kabat numbering)
heavy: B1 heavy with E50Q, S55K
chain: B1 chain
light: B1 light
B9: the “ratio of amounts bound Z=Y/X (altered form / CE115HA000)” value amounted to 1.19.

B10: CE115HA000 R19T one-arm antibody (antibody, human IgG1, kappa, L234A L235A, N297A, name in Kabat numbering)
heavy: B1 heavy with R19T, E50Q
chain: B1 chain
light: B1 light
With B10, the “ratio of amounts bound Z=Y/X (altered form / CE115HA000)” value was determined as 0.8.

B11: CE115HA000 R16Q one-arm antibody (antibody, human IgG1, kappa, L234A L235A, N297A, name in Kabat numbering)
heavy: B1 heavy with R16Q, E50Q
chain: B1 chain
light: B1 light
Regarding B11, the “ratio of amounts bound Z=Y/X (altered form / CE115HA000)” value worked out at 0.

B12: CE115HA000 S62D one-arm antibody (antibody, human IgG1, kappa, L234A L235A, N297A, name in Kabat numbering)
heavy: B1 heavy with E50Q, S65D
chain: B1 chain
light: B1 light
B12: the “ratio of amounts bound Z=Y/X (altered form / CE115HA000)” value was 0.92.

B13: CE115HA000 R16E one-arm antibody (antibody, human IgG1, kappa, L234A L235A, N297A, name in Kabat numbering)
heavy: B1 heavy with R16E, E50Q
chain: B1 chain
light: B1 light
With B13, the “ratio of amounts bound Z=Y/X (altered form / CE115HA000)” value was 0.88.

B14: CE115HA000 S62K one-arm antibody (antibody, human IgG1, kappa, L234A L235A, N297A, name in Kabat numbering)
heavy: B1 heavy with E50Q, S65K
chain: B1 chain
light: B1 light
Take B14: the “ratio of amounts bound Z=Y/X (altered form / CE115HA000)” value amounted to 1.19.

B15: CE115HA000 S77T one-arm antibody (antibody, human IgG1, kappa, L234A L235A, N297A, name in Kabat numbering)
heavy: B1 heavy with E50Q, S80T
chain: B1 chain
light: B1 light
For the molecule B15, the “ratio of amounts bound Z=Y/X (altered form / CE115HA000)” value came out at 0.9.

B16: CE115HA000 S52cG one-arm antibody (antibody, human IgG1, kappa, L234A L235A, N297A, name in Kabat numbering)
heavy: B1 heavy with E50Q, S55G
chain: B1 chain
light: B1 light
With B16, the “ratio of amounts bound Z=Y/X (altered form / CE115HA000)” value came to 0.97.

B17: CE115HA000 S52cV one-arm antibody (antibody, human IgG1, kappa, L234A L235A, N297A, name in Kabat numbering)
heavy: B1 heavy with E50Q, S55V
chain: B1 chain
light: B1 light
Turning to B17, the “ratio of amounts bound Z=Y/X (altered form / CE115HA000)” value worked out at 0.93.

B18: CE115HA000 T57A one-arm antibody (antibody, human IgG1, kappa, L234A L235A, N297A, name in Kabat numbering)
heavy: B1 heavy with E50Q, T60A
chain: B1 chain
light: B1 light
For B18, the “ratio of amounts bound Z=Y/X (altered form / CE115HA000)” value was 0.98.

B19: CE115HA000 S52cD one-arm antibody (antibody, human IgG1, kappa, L234A L235A, N297A, name in Kabat numbering)
heavy: B1 heavy with E50Q, S55D
chain: B1 chain
light: B1 light
Turning to B19, the “ratio of amounts bound Z=Y/X (altered form / CE115HA000)” value came out at 0.6.

B20: CE115HA000 S74P one-arm antibody (antibody, human IgG1, kappa, L234A L235A, N297A, name in Kabat numbering)
heavy: B1 heavy with E50Q, S77P
chain: B1 chain
light: B1 light
As to B20, the “ratio of amounts bound Z=Y/X (altered form / CE115HA000)” value is 0.91.

B21: CE115HA000 S30G one-arm antibody (antibody, human IgG1, kappa, L234A L235A, N297A, name in Kabat numbering)
heavy: B1 heavy with S30G, E50Q
chain: B1 chain
light: B1 light
As for B21, the “ratio of amounts bound Z=Y/X (altered form / CE115HA000)” value stood at 1.01.

B22: CE115HA000 S52cF one-arm antibody (antibody, human IgG1, kappa, L234A L235A, N297A, name in Kabat numbering)
heavy: B1 heavy with E50Q, S55F
chain: B1 chain
light: B1 light
Consider B22, for which the “ratio of amounts bound Z=Y/X (altered form / CE115HA000)” value was 1.13.

B23: CE115HA000 Q50K one-arm antibody (antibody, human IgG1, kappa, L234A L235A, N297A, name in Kabat numbering)
heavy: B1 heavy with E50K
chain: B1 chain
light: B1 light
Regarding B23, the “ratio of amounts bound Z=Y/X (altered form / CE115HA000)” value is 0.33.

B24: CE115HA000 T28D one-arm antibody (antibody, human IgG1, kappa, L234A L235A, N297A, name in Kabat numbering)
heavy: B1 heavy with T28D, E50Q
chain: B1 chain
light: B1 light
B24: the “ratio of amounts bound Z=Y/X (altered form / CE115HA000)” value worked out at 0.56.

B25: CE115HA000 S62E one-arm antibody (antibody, human IgG1, kappa, L234A L235A, N297A, name in Kabat numbering)
heavy: B1 heavy with E50Q, S65E
chain: B1 chain
light: B1 light
B25: the “ratio of amounts bound Z=Y/X (altered form / CE115HA000)” value worked out at 0.92.

B26: CE115HA000 S74A one-arm antibody (antibody, human IgG1, kappa, L234A L235A, N297A, name in Kabat numbering)
heavy: B1 heavy with E50Q, S77A
chain: B1 chain
light: B1 light
With B26, the “ratio of amounts bound Z=Y/X (altered form / CE115HA000)” value was determined as 1.05.

B27: CE115HA000 S62P one-arm antibody (antibody, human IgG1, kappa, L234A L235A, N297A, name in Kabat numbering)
heavy: B1 heavy with E50Q, S65P
chain: B1 chain
light: B1 light
B27: the “ratio of amounts bound Z=Y/X (altered form / CE115HA000)” value was 1.

B28: CE115HA000 Q50L one-arm antibody (antibody, human IgG1, kappa, L234A L235A, N297A, name in Kabat numbering)
heavy: B1 heavy with E50L
chain: B1 chain
light: B1 light
As to B28, the “ratio of amounts bound Z=Y/X (altered form / CE115HA000)” value was determined as 0.23.

B29: CE115HA000 S52cY one-arm antibody (antibody, human IgG1, kappa, L234A L235A, N297A, name in Kabat numbering)
heavy: B1 heavy with E50Q, S55Y
chain: B1 chain
light: B1 light
Regarding B29, the “ratio of amounts bound Z=Y/X (altered form / CE115HA000)” value came out at 1.11.

B30: CE115HA000 S52cL one-arm antibody (antibody, human IgG1, kappa, L234A L235A, N297A, name in Kabat numbering)
heavy: B1 heavy with E50Q, S55L
chain: B1 chain
light: B1 light
In the case of B30, the “ratio of amounts bound Z=Y/X (altered form / CE115HA000)” value came to 0.98.

B31: CE115HA000 Q50S one-arm antibody (antibody, human IgG1, kappa, L234A L235A, N297A, name in Kabat numbering)
heavy: B1 heavy with E50S
chain: B1 chain
light: B1 light
Consider B31, for which the “ratio of amounts bound Z=Y/X (altered form / CE115HA000)” value was determined as 0.24.
